{
  "source": "the Human Domainome abundance scans (Beltran et al. 2025)",
  "note": "± gives the uncertainty stated by the source.",
  "data": [
    {"experiment": "abundance fitness (aPCA) (normalised: wild type 0, dead -1); higher = more abundant; growth selection in yeast, the domain comes from the species named", "conditions": "Homo sapiens", "values": [
      {"substance": "DnaJ homolog subfamily B member 1 A12C, P25685", "abundance fitness": "-0.213 ± 0.14"},
      {"substance": "DnaJ homolog subfamily B member 1 A12D, P25685", "abundance fitness": "-0.38 ± 0.11"},
      {"substance": "DnaJ homolog subfamily B member 1 A12E, P25685", "abundance fitness": "-0.277 ± 0.13"},
      {"substance": "DnaJ homolog subfamily B member 1 A12F, P25685", "abundance fitness": "-0.346 ± 0.092"},
      {"substance": "DnaJ homolog subfamily B member 1 A12G, P25685", "abundance fitness": "-0.421 ± 0.1"},
      {"substance": "DnaJ homolog subfamily B member 1 A12H, P25685", "abundance fitness": "-0.175 ± 0.15"},
      {"substance": "DnaJ homolog subfamily B member 1 A12I, P25685", "abundance fitness": "-0.163 ± 0.11"},
      {"substance": "DnaJ homolog subfamily B member 1 A12K, P25685", "abundance fitness": "-0.02 ± 0.077"},
      {"substance": "DnaJ homolog subfamily B member 1 A12L, P25685", "abundance fitness": "-0.179 ± 0.068"},
      {"substance": "DnaJ homolog subfamily B member 1 A12M, P25685", "abundance fitness": "-0.139 ± 0.067"},
      {"substance": "DnaJ homolog subfamily B member 1 A12N, P25685", "abundance fitness": "-0.147 ± 0.089"},
      {"substance": "DnaJ homolog subfamily B member 1 A12P, P25685", "abundance fitness": "-0.108 ± 0.12"},
      {"substance": "DnaJ homolog subfamily B member 1 A12Q, P25685", "abundance fitness": "-0.094 ± 0.094"},
      {"substance": "DnaJ homolog subfamily B member 1 A12R, P25685", "abundance fitness": "-0.147 ± 0.07"},
      {"substance": "DnaJ homolog subfamily B member 1 A12S, P25685", "abundance fitness": "-0.191 ± 0.078"},
      {"substance": "DnaJ homolog subfamily B member 1 A12T, P25685", "abundance fitness": "-0.28 ± 0.088"},
      {"substance": "DnaJ homolog subfamily B member 1 A12V, P25685", "abundance fitness": "-0.145 ± 0.08"},
      {"substance": "DnaJ homolog subfamily B member 1 A12Y, P25685", "abundance fitness": "-0.559 ± 0.46"},
      {"substance": "DnaJ homolog subfamily B member 1 A15C, P25685", "abundance fitness": "-0.056 ± 0.14"},
      {"substance": "DnaJ homolog subfamily B member 1 A15D, P25685", "abundance fitness": "-0.502 ± 0.092"},
      {"substance": "DnaJ homolog subfamily B member 1 A15E, P25685", "abundance fitness": "-0.481 ± 0.068"},
      {"substance": "DnaJ homolog subfamily B member 1 A15F, P25685", "abundance fitness": "-0.814 ± 0.13"},
      {"substance": "DnaJ homolog subfamily B member 1 A15H, P25685", "abundance fitness": "-0.866 ± 0.15"},
      {"substance": "DnaJ homolog subfamily B member 1 A15I, P25685", "abundance fitness": "-0.69 ± 0.14"},
      {"substance": "DnaJ homolog subfamily B member 1 A15K, P25685", "abundance fitness": "-0.818 ± 0.096"},
      {"substance": "DnaJ homolog subfamily B member 1 A15L, P25685", "abundance fitness": "-0.801 ± 0.071"},
      {"substance": "DnaJ homolog subfamily B member 1 A15M, P25685", "abundance fitness": "-0.627 ± 0.1"},
      {"substance": "DnaJ homolog subfamily B member 1 A15N, P25685", "abundance fitness": "-0.668 ± 0.14"},
      {"substance": "DnaJ homolog subfamily B member 1 A15P, P25685", "abundance fitness": "-0.702 ± 0.098"},
      {"substance": "DnaJ homolog subfamily B member 1 A15Q, P25685", "abundance fitness": "-0.648 ± 0.12"},
      {"substance": "DnaJ homolog subfamily B member 1 A15R, P25685", "abundance fitness": "-0.82 ± 0.055"},
      {"substance": "DnaJ homolog subfamily B member 1 A15S, P25685", "abundance fitness": "-0.109 ± 0.074"},
      {"substance": "DnaJ homolog subfamily B member 1 A15T, P25685", "abundance fitness": "-0.271 ± 0.078"},
      {"substance": "DnaJ homolog subfamily B member 1 A15W, P25685", "abundance fitness": "-1.17 ± 0.085"},
      {"substance": "DnaJ homolog subfamily B member 1 A15Y, P25685", "abundance fitness": "-1 ± 0.16"},
      {"substance": "DnaJ homolog subfamily B member 1 A23C, P25685", "abundance fitness": "-0.169 ± 0.11"},
      {"substance": "DnaJ homolog subfamily B member 1 A23D, P25685", "abundance fitness": "-0.852 ± 0.22"},
      {"substance": "DnaJ homolog subfamily B member 1 A23E, P25685", "abundance fitness": "-0.149 ± 0.086"},
      {"substance": "DnaJ homolog subfamily B member 1 A23F, P25685", "abundance fitness": "-0.816 ± 0.1"},
      {"substance": "DnaJ homolog subfamily B member 1 A23G, P25685", "abundance fitness": "-0.184 ± 0.08"},
      {"substance": "DnaJ homolog subfamily B member 1 A23H, P25685", "abundance fitness": "-0.312 ± 0.14"},
      {"substance": "DnaJ homolog subfamily B member 1 A23I, P25685", "abundance fitness": "-0.819 ± 0.11"},
      {"substance": "DnaJ homolog subfamily B member 1 A23K, P25685", "abundance fitness": "-0.612 ± 0.11"},
      {"substance": "DnaJ homolog subfamily B member 1 A23L, P25685", "abundance fitness": "-0.839 ± 0.053"},
      {"substance": "DnaJ homolog subfamily B member 1 A23M, P25685", "abundance fitness": "-0.328 ± 0.068"},
      {"substance": "DnaJ homolog subfamily B member 1 A23N, P25685", "abundance fitness": "-0.169 ± 0.12"},
      {"substance": "DnaJ homolog subfamily B member 1 A23P, P25685", "abundance fitness": "-0.917 ± 0.095"},
      {"substance": "DnaJ homolog subfamily B member 1 A23Q, P25685", "abundance fitness": "-0.241 ± 0.13"},
      {"substance": "DnaJ homolog subfamily B member 1 A23R, P25685", "abundance fitness": "-0.442 ± 0.066"},
      {"substance": "DnaJ homolog subfamily B member 1 A23S, P25685", "abundance fitness": "-0.159 ± 0.056"},
      {"substance": "DnaJ homolog subfamily B member 1 A23T, P25685", "abundance fitness": "-0.339 ± 0.11"},
      {"substance": "DnaJ homolog subfamily B member 1 A23W, P25685", "abundance fitness": "-0.984 ± 0.09"},
      {"substance": "DnaJ homolog subfamily B member 1 A23Y, P25685", "abundance fitness": "-0.665 ± 0.097"},
      {"substance": "DnaJ homolog subfamily B member 1 A28D, P25685", "abundance fitness": "-0.521 ± 0.21"},
      {"substance": "DnaJ homolog subfamily B member 1 A28E, P25685", "abundance fitness": "-0.116 ± 0.12"},
      {"substance": "DnaJ homolog subfamily B member 1 A28F, P25685", "abundance fitness": "0.079 ± 0.14"},
      {"substance": "DnaJ homolog subfamily B member 1 A28G, P25685", "abundance fitness": "-0.106 ± 0.086"},
      {"substance": "DnaJ homolog subfamily B member 1 A28I, P25685", "abundance fitness": "0.093 ± 0.095"},
      {"substance": "DnaJ homolog subfamily B member 1 A28K, P25685", "abundance fitness": "-0.149 ± 0.083"},
      {"substance": "DnaJ homolog subfamily B member 1 A28L, P25685", "abundance fitness": "-0.032 ± 0.065"},
      {"substance": "DnaJ homolog subfamily B member 1 A28M, P25685", "abundance fitness": "-0.06 ± 0.088"},
      {"substance": "DnaJ homolog subfamily B member 1 A28N, P25685", "abundance fitness": "-0.119 ± 0.12"},
      {"substance": "DnaJ homolog subfamily B member 1 A28P, P25685", "abundance fitness": "-0.953 ± 0.16"},
      {"substance": "DnaJ homolog subfamily B member 1 A28Q, P25685", "abundance fitness": "0.084 ± 0.16"},
      {"substance": "DnaJ homolog subfamily B member 1 A28R, P25685", "abundance fitness": "0.033 ± 0.09"},
      {"substance": "DnaJ homolog subfamily B member 1 A28S, P25685", "abundance fitness": "-0.172 ± 0.11"},
      {"substance": "DnaJ homolog subfamily B member 1 A28T, P25685", "abundance fitness": "-0.094 ± 0.1"},
      {"substance": "DnaJ homolog subfamily B member 1 A28V, P25685", "abundance fitness": "0.043 ± 0.081"},
      {"substance": "DnaJ homolog subfamily B member 1 A28W, P25685", "abundance fitness": "0.024 ± 0.11"},
      {"substance": "DnaJ homolog subfamily B member 1 A28Y, P25685", "abundance fitness": "0.007 ± 0.14"},
      {"substance": "DnaJ homolog subfamily B member 1 A41D, P25685", "abundance fitness": "-0.036 ± 0.13"},
      {"substance": "DnaJ homolog subfamily B member 1 A41E, P25685", "abundance fitness": "-0.009 ± 0.11"},
      {"substance": "DnaJ homolog subfamily B member 1 A41F, P25685", "abundance fitness": "-0.128 ± 0.25"},
      {"substance": "DnaJ homolog subfamily B member 1 A41G, P25685", "abundance fitness": "-0.104 ± 0.067"},
      {"substance": "DnaJ homolog subfamily B member 1 A41H, P25685", "abundance fitness": "-0.24 ± 0.096"},
      {"substance": "DnaJ homolog subfamily B member 1 A41I, P25685", "abundance fitness": "-0.132 ± 0.17"},
      {"substance": "DnaJ homolog subfamily B member 1 A41K, P25685", "abundance fitness": "-0.178 ± 0.092"},
      {"substance": "DnaJ homolog subfamily B member 1 A41L, P25685", "abundance fitness": "-0.168 ± 0.066"},
      {"substance": "DnaJ homolog subfamily B member 1 A41M, P25685", "abundance fitness": "-0.214 ± 0.089"},
      {"substance": "DnaJ homolog subfamily B member 1 A41N, P25685", "abundance fitness": "-0.164 ± 0.17"},
      {"substance": "DnaJ homolog subfamily B member 1 A41P, P25685", "abundance fitness": "-0.432 ± 0.11"},
      {"substance": "DnaJ homolog subfamily B member 1 A41Q, P25685", "abundance fitness": "-0.134 ± 0.077"},
      {"substance": "DnaJ homolog subfamily B member 1 A41R, P25685", "abundance fitness": "-0.181 ± 0.07"},
      {"substance": "DnaJ homolog subfamily B member 1 A41S, P25685", "abundance fitness": "-0.146 ± 0.072"},
      {"substance": "DnaJ homolog subfamily B member 1 A41T, P25685", "abundance fitness": "-0.055 ± 0.068"},
      {"substance": "DnaJ homolog subfamily B member 1 A41V, P25685", "abundance fitness": "-0.02 ± 0.075"},
      {"substance": "DnaJ homolog subfamily B member 1 A41W, P25685", "abundance fitness": "-0.255 ± 0.064"},
      {"substance": "DnaJ homolog subfamily B member 1 A41Y, P25685", "abundance fitness": "-0.631 ± 0.43"},
      {"substance": "DnaJ homolog subfamily B member 1 A49C, P25685", "abundance fitness": "0.049 ± 0.12"},
      {"substance": "DnaJ homolog subfamily B member 1 A49D, P25685", "abundance fitness": "-0.086 ± 0.12"},
      {"substance": "DnaJ homolog subfamily B member 1 A49E, P25685", "abundance fitness": "0.126 ± 0.094"},
      {"substance": "DnaJ homolog subfamily B member 1 A49F, P25685", "abundance fitness": "-0.358 ± 0.15"},
      {"substance": "DnaJ homolog subfamily B member 1 A49G, P25685", "abundance fitness": "-0.187 ± 0.12"},
      {"substance": "DnaJ homolog subfamily B member 1 A49H, P25685", "abundance fitness": "-0.132 ± 0.18"},
      {"substance": "DnaJ homolog subfamily B member 1 A49I, P25685", "abundance fitness": "-0.304 ± 0.16"},
      {"substance": "DnaJ homolog subfamily B member 1 A49K, P25685", "abundance fitness": "0.13 ± 0.13"},
      {"substance": "DnaJ homolog subfamily B member 1 A49L, P25685", "abundance fitness": "-0.75 ± 0.086"},
      {"substance": "DnaJ homolog subfamily B member 1 A49N, P25685", "abundance fitness": "0.115 ± 0.17"},
      {"substance": "DnaJ homolog subfamily B member 1 A49P, P25685", "abundance fitness": "-0.743 ± 0.074"},
      {"substance": "DnaJ homolog subfamily B member 1 A49Q, P25685", "abundance fitness": "-0.394 ± 0.086"},
      {"substance": "DnaJ homolog subfamily B member 1 A49R, P25685", "abundance fitness": "0.021 ± 0.082"},
      {"substance": "DnaJ homolog subfamily B member 1 A49S, P25685", "abundance fitness": "-0.037 ± 0.074"},
      {"substance": "DnaJ homolog subfamily B member 1 A49T, P25685", "abundance fitness": "0.094 ± 0.099"}
    ]}
  ]
}
